# Measurements: the domain aggregation screens of Martell et al. (2025)
# Experiment: soluble fraction after stress (log2 fold change); higher = more stays soluble; pooled small domains, quantitative proteomics
# Details: stress: 75 degC
# 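Further: 20 min heating vs room temperature control held 20 min.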
row,Sequence,soluble fraction (log2)
1,HMSAISSARKEKIIEYLTDHGSARSSEIAEYVDLRPSRVRDYLGELVREDIVVAEGANRNRTYRLK,-0.0533
2,HMSAPGYRAVYPGMLESERQTAYELLSSSGFDVKINTSSGELEVTTDRYHEARMVMASQNIPK,-0.137
3,HMSAPVFRITPAGVVVNGLKRSDILTLTRIDGAMNTLPHNAGEVLVSTEGLAKGVYVITAGGKSLKFLV,-1.85
4,HMSAQPMEYSRFYSDVTQGRVAEVEIEGREINGRLSTGERFKTFSPETDNKALIGHLLDNGVVIEGKPP,0.255
5,HMSASEKLFEARKNLNIVNVLGKNPVDRYDIVKILKHGDHYHIYDSKGNEGITYTNPKSLYPEAEFGEYQG,-0.0642
6,HMSASTGTVSYKSGATTVWNSPSWHQVKRYVTFGDTVQLLGKTVDQNGATWYKVGDNQWIPELYLNVAG,-0.725
7,HMSATEPVHFDPNKSPEDMTVEELQAGILAKMANNGPVSDQMKKTVNENIWHDSLVNWLKSF,-0.164
8,HMSATPQRMSIINELDSARKNLSAYDLRDSLKDKGHSFNISTIYRVLSFWIDVGVVHKMDSSNTYL,-0.111
9,HMSATVLVHVLGEVRKPGVVSLPEGSRVQDAITAAGGLTSRAKPGDLNLAARVSDGAQLVIGRSGSQVRTT,-0.306
10,HMSAVVAPLPGLIQNILVKVGDTVHAGQHVLTMEAMKMENEIQTNRDGIIKDIKVRIGDSVNEGDTLIIL,0.0725
11,HMSDAGAIEPTIKEILASNPKAVEEYLAGNIKNINALIGQSMKALHGKADPQTVRNLLAKLLDEM,-0.252
12,HMSDAIQLEQKIGLEAIEWYLALSEQTDDKLLYQQWQSWLAADPQHQLAWSRIEQVNHGLNTL,-1.03
13,HMSDAVQLGLRLRAARERRGLSQQAVADALGLPRTAVTNMESGNRAVSTLELTKLAALYGQSTAFFLSP,-1.19
14,HMSDDVELLGRLSDREVSVLQYLSQGYSNKQISEQMFISNKTVSTYKARLLLKLNAGSLVDLIEFAKRNTL,-1.35
15,HMSDEINYVIQINGKNRAEAEFGANLDKESIENLALEHERIKELLNGLTVRKIIVVPKKLVNIVA,-0.556
16,HMSDESALLELVKQIIADNPKAVEEIRAGKEKAMGFLIGQAMKASRGSANPQIISRLVREQLG,0.57
17,HMSDFDPTLILDLIKGSGEALTKREIARALGIKGGDKRIELKSHLKSMEAEGVIVKQAGGAYSVP,-0.132
18,HMSDFSNLNLLELNSSELDLLLRRASSQGLTQMDLLKMARSQGLSEADLIKVKGKIDTSESIKR,0.076
19,HMSDFSSNLRRLRKRAGLSQDALAEKLSVARQTVSSWERGNSYPDLDMLVRISDALATDPNELLYPN,-0.167
20,HMSDGDFLQKIAEEILAQFPDKVKEYQKGKKGLIGFFMGELMKRSKGKADPKVATRILEEILSEKNGSS,-0.0745
21,HMSDGTVYGSDGVIKVNLPQSGMLRIYATDGTTLVNRWQAAGIDTISMPRGLYIVRFDNQVWKVVV,-1.65
22,HMSDHSSLAGKEGVAVTPLRPAGTAEIDGKRMDVVTMGDYIKAGDHIKVVKVEGNRIIVAKN,0.0173
23,HMSDHYEVLGVDRNATDDQIKKAYRRLARELHPDVNDAPESQEKFKLVTHAYEVLSDPDERRKYDMG,-0.0229
24,HMSDIYSLFERELGRTLSSYEYEIIGKWIEKGVSEDTIKRALKEAILNGVTNFKYIDKIIYDWSKN,-0.622
25,HMSDLFKYSPYKTLTEEQYKITYQIIERLKTDLSNGIPRISIIDGGAGTGKSILGIFLLKLLVDAQN,0.353
26,HMSDNLSASERKALSHMEGMESVRSSEVADLLGMSQRGAQKLLNRLVDKGLASSFGANRNRRYSVE,0.144

row,Sequence,soluble fraction (log2)
1,HMSDNLTIVRAVYSGLSQRQAAATYHVSRNTVSLLLRHARNRGWLTLEDLAQLDNAAFSKSL,-4.32
2,HMSDPFSPTTTLKNRAKSVLSVDSFEDFKLFIKKMWQEKKEGVYQNPNVETWKDWDNISVKDAKILISLI,-1.45
3,HMSDPHEELMSRIARDLSIPLTRVVAEMNTIISKEFGGHIRPEGAVVILAKRSGVEFSDLLPALRENILK,-1.92
4,HMSDQIQQIAERIAGLRDIAGYSVEELARELGISAEEYKRYESGEVDIPIGFLYKLANKYNVELTAILT,-0.289
5,HMSDRFLDQEGVALSTLRPSGTVVLDSGEHLDVVTRGEFIEQGERVKVIKAESTWYVVEQIN,0.112
6,HMSDRLRLGRRIRAARLEQNLSQAALAERLGISASYLNLLEHDRRSLTTVLLLKLAQVLGLELRDLAAG,-2.49
7,HMSDRLRPGDMVVVVGKKKRYPVFSAFDIDFVEAGDVGKVLTVKREEVVVGFPKKGEGTFTPSELNIAH,-1.18
8,HMSDTGQELHDALNMARRTLTILEEQAAGYTALTIPARLVLELEEKRKDVVRLETQIRSAATGTPG,-0.649
9,HMSDTLPRLLWNFQMAKRLDEMNGAEKRRYQLVLIHPQASEKERDYASSFAHQARMLGIEVAIRDS,-0.395
10,HMSDVVFRINANGLNVSGLANGERVSVYDTTGKLVTTAVSTQDNGTLNLPLKQSGGIYIARTQSGVSFKFT,-0.786
11,HMSDYKSYLQELVQTDKKSLSYNVVKETGPAHDKTFEVEVEVDGIIYAHGVGKSKKEAEQNAAKNAIMISA,0.3
12,HMSDYLGSLSHEEKMIFNHFDEDSSTIENMAKKTELKPELISQIFLNLELRGFLRQTEGGLYEKI,-0.43
13,HMSDYYEVLGVTRQADAEEIKRAYRRKARQLHPDVAGPGHEEEFKEVTVAYEVLSDPEKRQAYDLGGQDAL,0.0155
14,HMSEDAVKFRAAVEVENGLAQRNLNKNQAALILGVDRSYFTYIISGKKTPSPDMAKRIGLLLGFDWRVFYA,-1.89
15,HMSEEIKVPNFVGSTFEKAQALAQETGLEIARGEDVYSPDQEEGKITSQNPTADSVVSPGKLITVYVSKG,0.385
16,HMSEIKDRLREARRNKGLSQAGLSKLLGVSQASIAAIESGRNKRPTNLVSIAKALDVSPYWLETGK,-0.229
17,HMSEITQTLSMIGKEVTLEIPDEKDKTKTTEVKGIVTEASFKDGTGKVKVNGEYYSIAYITSIRDT,≥ 1.04
18,HMSEIVEEQNTKLKQAVSKLSKRQQEVLYLKFEEGLDYEQISKIMDLKYQSVRNLVSTAIIKIKEH,-2.72
19,HMSEKELTDLIERIKERRLKLEMSYQDLSDATGISKSTLQRYETGYIKKVPINQIEILAKALHTTPSYLMG,-0.411
20,HMSEKIDINNSNELELKQLPLTNEQIKSLIEFRRLHGEIQNIYELKNIDFFNIEKVHELKAHIEIKKII,-1.03
21,HMSELADDPVYTALEKAADKAGLQLTVRILNDLADAVLKRGKKKLTAAQAGKVIARAESELAKSRID,0.00292
22,HMSELDASYLGQRVRYVSGFTETDPSEGLVEFRGSNWRARAEHPPLDHSGHWVIVKVESNTLWVEEKSN,-1.57
23,HMSENEIDELRRRFAREAMALMERKGEEVSRTRLAAELSVARARIDAVFPEESDLLEAVTAEWFA,-0.477
24,HMSENEVQAKVKEIVDRYAGDKSALIAILQDVQDEYRYLPKEALVSIQQQMNIPLSRVYEVATFYDAFS,-0.556
25,HMSEPIYTQLKEILTQKIVNGEFPPGARLPSEYELTELYHISRSTVRLALKELEASGMIVRRRGKGTFVSS,-2.39
26,HMSEPRYRQLATILAQEIRSNHSAGDQLPSEQALAKRFEVNRHTVRRAVDELVAAGMVTRHQGWGTQVV,-0.158

row,Sequence,soluble fraction (log2)
1,HMSEQGVITAKFASIVGNQNIQLVMFPDSVYLKGQVSSEEEKKRAETVASSLIQDRKIVNLIEFE,-0.075
2,HMSEQIALQFAKAKQHHTGIALKGIEALELRYKGYTGKEIAALYHTSPKSVFSWISRAKQKLRQN,-0.272
3,HMSEQLHALIDRLDDIPDDELKKNWPGTLRDLVDVISAELHRQGIEPAQAGMLARKVAAAQAGYMG,-0.486
4,HMSEQLKQIAERIKELRNIAGLGEEELAAKLDIPVDTYREYESGNVDIPVSFLYKISGMFNVELTAIL,-1.1
5,HMSEQLVGTVGHITVGTARTASPAEAKFLDAFEQPHYLLVEPIEPKDIFQQGDKVVLVKKQHHSWLATRYI,-1.2
6,HMSEQTLEDVRRLIEHLPESQKEVVKMRYYQDLSFKEIADLKGISINTALGRMHYAINNMRKMAKEYGL,-1.94
7,HMSEQVQLQAQVEDDLIGKRLDQVVAQLFPDYSRSRLQGWIKDGSLTVDGESRRPRDKMMGGEVVRVEATL,0.107
8,HMSEQVTMIDVEGKTETEAKKALEDLGLKVEITYESADAAAGTVIGQDVKAGSTVSEGSRVTLTVSGQ,0.528
9,HMSERQTGTVKWFNNAKGFGFITMADRPDDIFVHFRAIQGDGYRSLNEGEEVEFSLVEGPKGLQAEEVTK,-0.0682
10,HMSESAGKAFDLLFYLAKAGETVSLARLSRETGMNKATALRYLNVLESKGVVERSKLGWTLGLSLFELGSK,-2.96
11,HMSESIFTLYGDEKFEKIRYYLKERGFITLDALARFDFDELLFVPGVSELLISEAKQLFSRYDTSSLAAKE,-0.584
12,HMSETAEFIIQVNGKVRAKLQLPTDISKEEIQKLALADENVQKYLNGEPRKIIFPPNTRLVSIV,-0.315
13,HMSETEEWTVEGGQAGDRIDRHVAAMLGDDVSRSQVQQWIRAGRVTVNGRAVKPSDTVEEGDRVAVDLPEP,-0.189
14,HMSETVYQYVARQLRDMLGSGEIPVGQQLPTYRELAKRFQVSLSVIQRAMRQLKAEAVVSIAHGQGVKAVR,-1.16
15,HMSEVPVLVAKTDIKELELIDDRKVTLINVPQKFKMPGSFNSPEEVYNTIAAVPIKEGEQITKPRVTWP,0.0951
16,HMSEVSEILTRARFFAGVKTDAELSTLLKIPYGTLIGWKTRKNIPESRIAQMALILGIRRDTLIPA,-1.86
17,HMSEYIFGKNVVKEAFNNPSRIEEIYVLDKNMEFVSLAKKYHIKYTVITSSEMNKMVSGNHQGVVALVK,-2.1
18,HMSFDENEALRKALDVFWEKGYDGTSLSDLTEAMGINKPSLYATFGNKDQLFLKAIEMYENR,-1.4
19,HMSFDTFKKVFSNLVEKSGYSDAEIARRLGVNRSTISRWKSGEQSPPLPKVKEIANFFGVSPMVFVD,-0.41
20,HMSFFNGNQMKILRKKLQLNQEEMGEKLGIKKSYVSQLENNRKEITEEIDQILQELEQEYQDKM,-0.642
21,HMSFGESLKKLSIALNSIRKLATTDAGKKDPKVADLLGQIRDTFNSYRTHLRKNYPDLYSGIKNQL,-0.977
22,HMSFGKKLRSLRQEKKLSQVELSKKLNVTSQALSQYELGKRIPDAEMIIRIADFFDVSVDYLLDRT,-1.69
23,HMSFGWESLENKEGVADTDLHPSGWVRIEDSRIFVVSEGDFINKGSKVTVLTVDGNRVVVRELI,-2.1
24,HMSFNISPTKKLILELIMNGTAAVEAIAVKAGISKGMAYNHLRELRSMGYITDEGGYKITDSGRLAV,-2.39
25,HMSFNNHYEILQVQPSADREVIEAAAKALLKKHHPDLGGRNTITSHIVQAKKVLTDTSQRADFDARLRERL,-0.135
